T1: Human hexokinase II (HK‐II), recombinant (human, UniProt P52789 1-917, fluorescently labeled using a NanoTemper BLUE protein‐labeling kit (in the MST))
T1 construct: hexokinase II (HK‐II), human, cloned into plasmid pET‐His; source: E. coli BL21, IPTG induction, purified (HiTrap nickel column, Blue HiTrap column)
T1 sequence (looked up): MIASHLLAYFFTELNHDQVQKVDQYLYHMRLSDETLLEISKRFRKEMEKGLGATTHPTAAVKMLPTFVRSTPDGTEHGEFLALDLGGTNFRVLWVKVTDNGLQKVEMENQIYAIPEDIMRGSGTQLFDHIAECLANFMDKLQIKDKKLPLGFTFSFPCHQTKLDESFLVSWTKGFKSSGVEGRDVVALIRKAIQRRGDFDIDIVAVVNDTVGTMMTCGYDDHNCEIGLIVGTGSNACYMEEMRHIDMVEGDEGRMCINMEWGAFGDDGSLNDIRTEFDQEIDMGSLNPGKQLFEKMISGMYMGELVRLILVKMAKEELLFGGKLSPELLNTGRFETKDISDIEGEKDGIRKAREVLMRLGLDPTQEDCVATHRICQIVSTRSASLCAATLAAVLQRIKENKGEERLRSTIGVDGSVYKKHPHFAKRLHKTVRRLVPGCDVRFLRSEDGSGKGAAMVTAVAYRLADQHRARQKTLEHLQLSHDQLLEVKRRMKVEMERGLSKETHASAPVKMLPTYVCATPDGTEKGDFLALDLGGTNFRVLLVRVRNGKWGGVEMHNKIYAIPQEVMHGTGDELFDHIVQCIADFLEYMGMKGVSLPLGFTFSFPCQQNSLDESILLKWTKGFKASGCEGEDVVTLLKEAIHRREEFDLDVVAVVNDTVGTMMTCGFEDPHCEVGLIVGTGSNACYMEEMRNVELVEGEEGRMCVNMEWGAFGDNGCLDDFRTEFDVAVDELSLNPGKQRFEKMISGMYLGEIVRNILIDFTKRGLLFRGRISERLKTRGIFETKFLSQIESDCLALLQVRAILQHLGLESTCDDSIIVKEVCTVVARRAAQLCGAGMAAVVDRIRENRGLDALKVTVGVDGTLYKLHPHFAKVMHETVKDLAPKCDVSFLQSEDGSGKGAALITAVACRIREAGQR

T2: Human hexokinase II (HK‐II), recombinant (human, UniProt P52789 1-917, fluorescently labeled using a NanoTemper BLUE protein‐labeling kit (in the MST))
T2 chain: T1 sequence (looked up)

B1: Antp‐LP4 (peptide)
peptide: RQIKIWFQNRRMKWKKSWTWEKKLETAVNLAWTAGNSNKWTWK
notes: amino acids added to form a loop‐shaped tryptophan zipper (N‐terminal arm); amino acids added to form a loop‐shaped tryptophan zipper (C‐terminal arm); 43 residues as printed; source: synthetic peptide (GL Biochem, > 85% purity)
B2: Human hexokinase I (HK‐I), recombinant (enzyme, UniProt P19367 1-917, looked up)
chain: MIAAQLLAYYFTELKDDQVKKIDKYLYAMRLSDETLIDIMTRFRKEMKNGLSRDFNPTATVKMLPTFVRSIPDGSEKGDFIALDLGGSSFRILRVQVNHEKNQNVHMESEVYDTPENIVHGSGSQLFDHVAECLGDFMEKRKIKDKKLPVGFTFSFPCQQSKIDEAILITWTKRFKASGVEGADVVKLLNKAIKKRGDYDANIVAVVNDTVGTMMTCGYDDQHCEVGLIIGTGTNACYMEELRHIDLVEGDEGRMCINTEWGAFGDDGSLEDIRTEFDREIDRGSLNPGKQLFEKMVSGMYLGELVRLILVKMAKEGLLFEGRITPELLTRGKFNTSDVSAIEKNKEGLHNAKEILTRLGVEPSDDDCVSVQHVCTIVSFRSANLVAATLGAILNRLRDNKGTPRLRTTVGVDGSLYKTHPQYSRRFHKTLRRLVPDSDVRFLLSESGSGKGAAMVTAVAYRLAEQHRQIEETLAHFHLTKDMLLEVKKRMRAEMELGLRKQTHNNAVVKMLPSFVRRTPDGTENGDFLALDLGGTNFRVLLVKIRSGKKRTVEMHNKIYAIPIEIMQGTGEELFDHIVSCISDFLDYMGIKGPRMPLGFTFSFPCQQTSLDAGILITWTKGFKATDCVGHDVVTLLRDAIKRREEFDLDVVAVVNDTVGTMMTCAYEEPTCEVGLIVGTGSNACYMEEMKNVEMVEGDQGQMCINMEWGAFGDNGCLDDIRTHYDRLVDEYSLNAGKQRYEKMISGMYLGEIVRNILIDFTKKGFLFRGQISETLKTRGIFETKFLSQIESDRLALLQVRAILQQLGLNSTCDDSILVKTVCGVVSRRAAQLCGAGMAAVVDKIRENRGLDRLNVTVGVDGTLYKLHPHFSRIMHQTVKELSPKCNVSFLLSEDGSGKGAALITAVGVRLRTEASS
modifications: fluorescently labeled using a NanoTemper BLUE protein‐labeling kit (in the MST)

Ends that are not written are not given here.

Assay [1] has as its system PWR‐1E. Put plainly: Cell death, PI staining and FACS. In kind it is cell-based. The conditions noted are these: 6 h, PI/FACS (Fig. 2G). How it is done:
(§1) Leukemia cells, U‐937, MEC‐1 cells (4 × 10^5 or 8 × 10^5 cells/sample, respectively), as well as other leukemia or suspension cell lines, were incubated in 200 μL serum‐free medium with various concentrations of the peptide for 90 min at 23–25 °C, collected by centrifugation (500 g, 5 min), washed with PBS, and analyzed for cell death. Adherent cells (6 × 10^5 mL^−1 at 70–80% confluence) were incubated with the peptide of interest in 500 μL serum‐free recommended culture medium for 3–6 h at 37 °C and 5% CO2. The cells were then trypsinized, centrifuged (1500 g, 5 min), washed with PBS, and analyzed for the desired activity. Following peptide treatment, cells were subjected to cell death analysis. […] PRO software (BD Biosciences, San Jose, CA, USA).
(§2) For each line, cells were incubated with different peptide concentrations, and cell death was determined by PI staining and FACS analysis (Figs 1, 2, 3).

Assay [2] relates to T‐Rex‐293. Put plainly: Cell death, PI staining and FACS. In kind it is cell-based, human. How it is done: as §1, §2
Assay [3] relates to PANC1. Kind of assay: Cell death, PI staining and FACS. In kind it is cell-based. The conditions noted are these: PANC1 (Group 3, Fig. 1H); 6 h; about 10% in the absence of peptides. How it is done:
as §1, §2

Assay [4] concerns the target T1, Human hexokinase II (HK‐II), recombinant. Kind of assay: MST; fluorescently labeled HK‐I (830 nM) or HK‐II (100 nM) incubated 20 min with peptide (1–100 μM) in PBS; NanoTemper Monolith‐NT115, 40% LED, 40% IR laser power. The conditions noted are these: both partners purified.
Assay [5] deals with B2. The description is as above. The conditions noted are these: both partners purified.
Assay [6] addresses T2, Human hexokinase II (HK‐II), recombinant. Put plainly: MST.
In assay [7] the target is voltage‐dependent anion channel 1 (VDAC1) (human (endogenous in HeLa), UniProt P21796 1-283). Kind of assay: cell-based or functional assay.

Results on four molecules are retold here after paper PMC6026870, “Selective induction of cancer cell death by VDAC1‐based peptides and their potential use in cancer therapy” (Molecular Oncology, 2018).

With “HAIYPRHSWTWE-199-KKLETA VNLAWTAGNSN-216-KWTWK [Tf‐LP4]”, the “cell death induction in noncancerous cells” value in assay [1] is recorded as “almost no cell death induction”; in assay [2] (T‐Rex‐293, 6 h, PI/FACS (Fig. 2E)), “almost no cell death induction”.

In the case of “MAVPPTYADLGKSARDVFTKGYGFGLRQIKIWFQNRRMKWKK [N‐Ter‐Antp]”, the “steady‐state level of cell death” value in assay [3] is “about 50%”; in assay [2] (T‐Rex‐293 (Group 3, Fig. 1I), 6 h, about 10% in the absence of peptides), “about 50%”.

In general, Kd refers to the free concentration of one partner at which half of the binding sites on the other are occupied at equilibrium, for simple one-to-one binding. As for B1, the binding result in assay [4] and in assay [5] was “binds” throughout. Also, the Kd in assay [6] is 7.1 µM.

Consider B2, for which, in assay [7], the “HK‐I in the cytosolic fraction (0.025% digitonin fractionation, immunoblot) of A549 cells treated with Tf‐D‐LP4 (3, 5, 10 μM, 3 h)” value was ~2 fold and the “HK‐I in the cytosolic fraction (0.025% digitonin fractionation, immunoblot) of HeLa cells treated with R‐Tf‐D‐LP4 (3, 5, 10 μM, 3 h)” value was ~2 fold.
